Experimental data from the DeepSol protein solubility set.

Test: soluble on expression in E. coli; label from the status in PepcDB or PDB records

Sequence	soluble on expression in E. coli
MGSDKIHHHHHHMARDLQNHLLFEVATEVTNRVGGIYSVLKSKAPVTVAQYGDNYTLLGPLNKATYESEVEKLDWEDESIFPEELLPIQKTLMSMREKGVNFVYGNWLIEGAPRVILFELDSVRHFLNEWKADLWSLVGIPSPEHDHETNDAILLGYVVVWFLGEVSKLDSSHAIIGHFHEWLAGVALPLCRKKRIDVVTIFTTHATLLGRYLCAAGDVDFYNNLQYFDVDQEAGKRGIYHRYCIERAAAHTADVFTTVSQITALEAEHLLKRKPDGILPNGLNVVKFQAVHEFQNLHALKKDKINDFVRGHFHGCFDFDLDNTVYFFIAGRYEYKNKGADMFIESLARLNYRLKVSGSKKTVVAFLIMPAKTNSFTVEALKSQAIVKSLENTVNEVTASIGKRIFEHTMRYPHNGLESELPTNLDELLKSSEKVLLKKRVLALRRPYGELPPVVTHNMCDDANDPILNQIRHVRLFNDSSDRVKVIFHPEFLNANNPILGLDYDEFVRGCHLGVFPSYYEPWGYTPAECTVMGVPSITTNVSGFGAYMEDLIETDQAKDYGIYIVDRRFKSPDESVEQLADYMEEFVNKTRRQRINQRNRTERLSDLLDWKRMGLEYVKARQLGLRRAYPEQFKQLVGETISDANMNTLAGGKKFKIARPLSVPGSPKVRSNSTVYMTPGDLGTLQDANNADDYFNLSTNGAIDNDDDDNDTSAYYEDN	not soluble
ISEFGSCPPGQFRCSEPPGAHGECYPQDWLCDGHPDCDDGRDEWGCG	soluble
MGSDKIHHHHHHMRLYESLLEMCLNKAWEHQTLALENPSVACMVLDKNHEILSLETHKKAKTPHAEVLAAQSALKILRPSLKNDLEKLEDPKTLSDFLKTHHDNAFTDCVFLITLEPCNSYGKTPACSELLEILKPKRVVIATEENEAKKGGLARLQKARIETIICHNLENKAKDLLLPFRVMEQKGRFNLFKLALRMNGDYHHGKITGQKSVIFTHNQRAICDTLIVSGKTIRTDNPLLDARFCDSFYQNKNPNIAILSKRSIDPNSKVFSAPNRLVNTFHDPKDLPLEKGFNFIEGGWELFESLRDKIDALLLHSHASMIGEAFKALALKTPFKGRLLHAQILENEALLWIENS	not soluble
MFIKIFLITYRYKLTVISIIGGGTIGSSIAIPLKRSGFEVIVTRRNTAVLKHLESYGISVMSDNKTASKEADVVFLTLKPVDIIPEVRKIEENIRGKLLISMAAAIPLKLIKDAAPHSIVVRAMTNIAAKVGAGFTPFCVDDGDQEVAKRASSILSALGEVYLVEEKYMDALTALSGSGPAYILTIIEAMMYGGLKLGLPRDLALKASYQTVMGSAKLLAESGEHPSELKEKVITPGGTTIDGIYELEDARVRTAIMKAIEVSTMKANKISESIKKLEQLEHHHHHH	not soluble
MQLSTLTALSPLDGRYQDKVTPLRAIFSEFGLMKFRVAVEVRWLQKLASTADITEVPPFSTQANAFLDGIVANFNEADAARIKEIERTTNHDVKAVEYFLKEKIQNEVELVKVSEFIHFACTSEDINNLSHALMLSTARDEVILPEWQKLIDEITRLAEEYKTIPLLSRTHGQPASPSTVGKEMANVVYRLKRQFKQLQNAEILGKINGAVGNYNAHLSAYPNIDWHKFSEEFVTSLGIQWNPYTTQIEPHDYITEFFDAVVRFNTIIIDFDRDLWGYIALNHFKQRTIAGEIGSSTMPHKVNPIDFENSEGNLGLANAVMTHLGQKLPISRWQRDLTDSTVLRNLGVGLGYCLIAYASTRKGISKLEVNQPHLLEELNQNWEVLAEPIQTVMRRYGIEKPYEKLKELTRGKRVTEQAMREFIDKLDIPQEEKLRLQKLTPATYIGAAVELVEKLS	not soluble
MLRRIKRFLGLSTHAYFPNNEVAPTADGSLISTMSRKSTKSERKAAKKEKKRSQLADTSAPAIFHVPTAPADIVTEGEGSTVGQGSEIDRRTVITDSLPYREPSDKVYMGSPPSTVPQAPESSSSTRSLVGSDSIKSRLESMTIDGTSSVLQHVDSLTNSVYSAEFCQEVDSQNTCDAKSRELPVDCDIPTATEPLPISTKSNPVSNSSLTYMADVKLILPDKRDEKSEEVAGMKQLNAELDGLLKTSAPPFQVSTARLPPMLRELPPPANDESMLSGNDEFDDSKNNSVARYLNESHEVMMRSPENKHLRSCGY	not soluble
MGSDKIHHHHHHMVQVDNTFYDGSAYDPETVRFFDVAQEGAQVRQIGGLVAQGALSAFEGLRPRSVVVMLDGQIHRSCVRLVETLHSPMRQPLVITSTLPHYIGALDVLIVITDNGADEKALKALITASQRGVATLLIGPSSGPLIDESPQDTFVLPTLPTAAGLSPARIVASISTLLDLLEADPSIISDRLEHLADCIDEEVESLSPERDELVNPGRKLRAYVDHARIVHTGRTDVGLAIANVIAPIWTRRGLVSAVLDFPELMESLPELRGPEPITDDIFHDPFIDDEPGVVPFRAVVWAEEEPGIPDAMAQSCDGPSKGALTQALRLLVRGQSATTYSIEEKDL	not soluble
MSDKHINLVIVTGMSGAGKTVAIQSFEDLGYFTIDNMPPALVPKFLELIEQTNENRRVALVVDMRSRLFFKEINSTLDSIESNPSIDFRILFLDATDGELVSRYKETRRSHPLAADGRVLDGIRLERELLSPLKSMSQHVVDTTKLTPRQLRKTISDQFSEGSNQASFRIEVMSFGFKYGLPLDADLVFDVRFLPNPYYQVELREKTGLDEDVFNYVMSHPESEVFYKHLLNLIVPILPAYQKEGKSVLTVAIGCTGGQHRSVAFAHCLAESLATDWSVNESHRDQNRRKETVNRS	not soluble
MSLKRVLLLGGAGFIGYHLGRHLVERSDCRVTLVDNFFRSKQDEELDTLLQSSAVDIVEGDLTERSTFDQLDDEYDHVYALAAVVGVGYTEDMPEEVWRINTAITLNTFEWLRESSVSRVLFASTSETYAGTVEEFGAEIPTPEDVPLSITDITQPRFTYAVTKMLGEAGIAHYAQAYDFEQVTVRFHNVYGPRMGFKHVIPQVVERFHEAEDPFTVYGYDQTRAFCHVDDAVRGVVQAMETPEAAGRTYHIGDDRHEITIETLIRYIGDLMDFHGEYEQGPSHAGSVSRRCPDVDRAREVFGYEPQVHWKEGVRETVEWYADYYRSGREVFEEGHHHHHH	soluble
MSEILFINGKVRFPITIDPTVWIFDDRKVDLTTYFDETRENTSELETYLKNTSEHWDREIRDGAAFPPIQQSVKKYKKEQLITGTFGIPFHPFLANAEILEDATQVEIETVDHTMTLPLETVKNAILGFSKEGKPLKEDGPVHLYFNDGSNQQNPIRNIRKFTII	not soluble
MPEIRLRHVVSCSSQDSTHCAENLLKADTYRKWRAAKAGEKTISVVLQLEKEEQIHSVDIGNDGSAFVEVLVGSSAGGAGEQDYEVLLVTSSFMSPSESRSGSNPNRVRMFGPDKLVRAAAEKRWDRVKIVCSQPYSKDSPFGLSFVRFHSPPDKDEAEAPSQKVTVTKLGQFRVKEEDESANHHHHHH	soluble
MGSDKIHHHHHHMEKSSIYGLTWTNLTEWLEAHGQKKFRATQVWDWLYRKRVKTFEEMSNVPKETIELLTANFVMNTLEEQVVQESTDGTTKYLFKLSDGNLIETVMMKQEYGLSVCVTTQVGCNIGCTFCASGLLKKSRDLTAGEIVEQIMNVQHYLDGRNLEERVSHVVVMGIGEPFDNYDNVMDFLRVINHDKGLAIGARHITVSTSGLAPRIIDFANEDFQVNLAISLHAPNNELRTSIMRINKTYSIEKLMEAIHYYVNKTNRRITFEYIMLKGVNDHKKEALELAALLGEHRHLAYVNLIPYNPVDEHIDYERSTKEDVLAFYDTLKKNGINCVIRREHGTDIDAACGQLRSKQIKRVGVRERMKQKQAAAEE	not soluble
MSLTGQAEAPFIRHGYFKFADGVIVSVAEGTPSPEEIDRVEVIDGKGKWVMPGMINTHGHLGMSLLRGHSDDLPLQSWLTEKMWPFEGKMDREAVHHARQLAMAEMIKSGTTTFLEMYHLYMDDLAEAVVEQGPRAVLMRSMIGLCSESEQREKLKEAVTFATTWNGDGNGRITTMMAPHAPYTCPPSFIEMIVDEADRIDLPLHTHMAETQREVEEHRKTYGVHPLVHFEQLGFLKDRHWLLAHCVHLGEEELDILEQHPSVHVSHNPMSNLKLGSGIANVQSMLERGINICLGTDSVASNNHLDLVEEMRIAALLQKGAVLDPTAIPAETAIAMATKNGAKALRLPQVGTIEAGKRADFIMIDPQCLHLQPHEHVMSHLVYALKGADVQDVFVEGAPLMLNKELKTFDEEKLQFEANAHYQRICEKLKEGHHHHHH	not soluble
MAHHHHHHMAKHSTFKNLVKLHGDMKKEELLVLFFHSCILDNNFIYKLNDEQKYEKSESHEKIKISNGYIKHMTDVGSGKFFLSRILIDPEWRSNSSSYNFLYQSVDTNDTYNLNLVKIENSLVVQIINTAQPSVVHSVTIDVGEYVNECTAEEGKTDNIEDRVMMEKLEGVFQTHILSHMKKGSSNNILGDNSSSKGKGPKGLIIESNANEHFRNVFQTNPDPYLLPNFNANHFDDKNPNIGRSLIPDLRNNVPILKPDGLLVGPDNKFFNPKNLRYDPIGPFGNEPNADNKPFEFQDNFPF	not soluble
MGSDKIHHHHHHVEKFDLENFPVSESAKNMIASVSDGFYDNSYVGKWLYEVMGQEYDTAREIAEDILNQLFPETATWGLMYHEIKWGLPVRENLPYEERRQLIYRKRDYRAPMTPYRMEGYLKTATGFDVRIADINDPGDYGFVAPHPNVFKAYFMGEGTLASKRARAMLNELKQSHTMFTMNDRTEIVSDNRNLEEMNLKKIIFHIAESFWYSDLLDGRKPLDGSSLLYPYMRYNLMLGFKYMLGGFTTPTDADLQKVKFRAEQKTENDVKAGAIRIASDIIFWNTHLLDGSWDLDGSHRLDVTRGYQLGVAIVAMVACAYNKVTDSMKVRSTYGLRSSSDARAAIRSEFEADFWNTVYLDGKLLLDGNAMLEHRGGNKRLEAAVTHHMGIEREDMDVEAQVITKTRNYWFLDGSNALDGKKNLNSIYRKEYIQ	not soluble
MAKVTGTKVITNQVRLSFVHVLEPHAMEEGQEKKYSCMLIIPKDDKETLKAMKEAIKTAYEGAKGDKLKGVKFERLKTTLRDGDEEMDTEERPEFENAMFINVSSKTKPQVVKREDGVLVKTDDPDEVYSGVYAIASINFYAYSTAGNKGVTAGLNNILTLCKGDFLGGRANAESDFGDLEWEDEEDDMFS	not soluble
MKQVKITTTSDLINGGCNACPNVKCTNYLVHVEDETIALETLTVADLVTLLALKEGFRQKLVMEMFEEYTVFERETHQVVFKEEETRILFQSKKQTIQSTLLCKEPQQVFQETQQILHQLFELEPFEFELVEETDE	not soluble
MKTEHKQVVVVGAGPSGSTVSALLKSRGIDVVVIEKATFPRFSIGESLLPACMEVVELAGMTEAVKQHGFQFKDGAAFRRNGVYTHFDFTDKFTAGPGTTFQVQRASFDKVLADSAAEQGVDIRYQHELVSLAFEGKKSRLEVVGPDKQAYQIEADFVLDASGFGRVLPRLLDLEEPSCLPPRKAIFTHIEDHISPQEPEYDRNKILISVHPENHDVWYWLIPFSNGTCSFGVVGEPEFFEQYPEDKLAALQQLANEEPGLASLLRNAKYPNPVGELGGYSANVKRLATEHYALLGNAGEFLDPVFSSGVTIAMKSAQFAADCVVRQLNGEVVDWQEEYSERLMVGVNTFRTYVEGWYNGTLQDVIFYQAPNPRIKQMISAILAGYAWDTENPYVKQSEQRLSTLAELVRGEGFLEHHHHHH	soluble
MTLIRWNPWQDLNTLQRQLNHLFEEDMLPSTLLERTLTRVPAAELHETAEVIYLKLELPGIDAKDVDLQVTDKAVYISGERKSETKTEDKGVFKSEFQYGKFQRVIPLPARIQNTNVTAEYKDGILNLTLPKAEVEKNKVVKINIESAAGLEHHHHHH	soluble
MKLTLMFREYCSLCHKMRDELKPFQDEYGFGLEVVDVDENPVLEEKYNELVPVLLAGDEEICHWFLDEDRLKQFLER	not soluble
MAHHHHHHMGTLEAQTQGPGSMDFRIGQGYDVHQLVPGRPLIIGGVTIPYERGLLGHSDADVLLHAITDALFGAAALGDIGRHFSDTDPRFKGADSRALLRECASRVAQAGFAIRNVDSTIIAQAPKLAPHIDAMRANIAADLDLPLDRVNVKAKTNEKLGYLGRGEGIEAQAAALVVREAAA	soluble
